Measurements: US20250099548A1, “PHARMACEUTICAL COMPOSITION FOR PREVENTING OR TREATING DEGENERATIVE BRAIN DISEASES, CONTAINING GLUCAGON-LIKE PEPTIDE-1 AND INTERLEUKIN-1 RECEPTOR ANTAGONIST” (GI INNOVATION, INC., priority 2022, published 2025)

Key:
[1] = in vivo; cited from earlier work
Tg-APP/PS1 mice [2] = test: MAP-2 immunofluorescence staining of hippocampal CA1 region; format: in vivo, mouse; conditions: Example 2; GI210B1, GI210B1C1, GI210B1CN at 1.2, 0.7778, 1.1745 mg/kg intraperitoneal, 4 times for 2 weeks
Source text: Long-term memory is regulated at synapses between axons of neurons and dendrites of target neurons, and the microstructure of neurons is greatly influenced by the state of neuron health. Changes in the microstructure of dendrites of neurons are important for maintaining memory. The microstructure of the dendrites of such neurons can be observed as an image by staining with an anti-MAP-2 antibody (GeneTex, CatNo. GTX133109) located in the dendrites.
Therefore, in order to determine the mechanism of action of cognitive function improvement and memory recovery effects of GI210B1, the Tg-APP/PS1 mice administered with GI210B1 (Tg+GI210B1), the wild type mice (WT) as a normal group, and the Tg-APP/PS1 mice (Tg or Tg+Veh) as a control group were sacrificed, and then the brain tissue was extracted, and the microstructural status of the dendrites (dendritic process) of the hippocampus was analyzed.
In the same manner as in Example 1.4.1 above, the mice from each group were sacrificed, and then the brain tissue was extracted, and the microstructural status of the dendrites of the hippocampus was analyzed.

Tg-APP/PS1 mice [3] = test: Aβ plaque deposition in brain tissue, thioflavin S staining; format: in vivo, mouse; conditions: Example 2; GI210B1, GI210B1C1, GI210B1CN at 1.2, 0.7778, 1.1745 mg/kg intraperitoneal, 4 times for 2 weeks
Description: Accordingly, in order to confirm the effect of treating Alzheimer's disease by intraperitoneal administration of GI210B1, the Tg-APP/PS1 mice administered with GI210B1 (Tg+GI210B1) and the Tg-APP/PS1 mice (Tg+Veh), a control group, were sacrificed, and then the brain tissue was extracted, and Aβ plaques were stained using thioflavin S, and then the degree of Aβ plaque deposition in the parietal cortex, hippocampus, and piriform cortex regions was analyzed.
Specifically, for immunohistochemical analysis using thioflavin S staining, the brain was collected after perfusion for the mouse with 4% paraformaldehyde, and then the brain was further fixed with 4% paraformaldehyde overnight at 4° C. The brain tissue sections were prepared by cutting the fixed brain tissue to a thickness of […] using a vibratome. The prepared brain tissue sections were stained using thioflavin S by a known method. At that time, the stained image was analyzed using MetaMorph Microscopy Automation & Image Analysis software (Molecular device). The amount of plaque was quantified and expressed as the number of plaques per unit area and the sum of the plaque areas.
The Tg-APP/PS1 mice were prepared in the same manner as in Example 1.1 above. The test substance was prepared by diluting GI210B1, GI210B1C1, or GI210B1CN obtained in Preparation Example 1 to 3 in saline. Thereafter, the prepared test substances were each intraperitoneally administered to the 6.5-month-old Tg-APP/PS1 mice at a concentration of 1.2 mg/kg, 0.7778 mg/kg, and 1.1745 mg/kg a total of 4 times for 2 weeks (FIG. 23).
In the same manner as in Example 1.3 above, the mice were sacrificed, and then the brain tissue was extracted, and the degree of Aβ plaque deposition in the parietal cortex, hippocampus, and piriform cortex regions was analyzed using thioflavin S, which stains Aβ plaques.
The Tg-APP/PS1 mice were prepared in the same manner as in Example 1.1 above. The test substance was prepared by diluting GLP-1 (Peptron), GI210B1C1 obtained in Preparation Example 2 and GI212B2 obtained in Preparation Example 4, anakinra (Amgen, Kineret-inj), and the anti-IL-1 antibody (BioXcell, BE0246) in saline to concentrations of 0.0371 mg/kg, 1.1745 mg/kg, 1.8722 mg/kg, 0.2041 mg/kg, and 1.77 mg/kg, respectively. Thereafter, the prepared test substances were intraperitoneally administered to the 6.5-month-old Tg-APP/PS1 mice a total of 4 times for 2 weeks, as shown in Table 6 below (FIG. 30). […]
In the same manner as in Example 1.3 above, the mice from each group were sacrificed, and then the brain tissue was extracted, and the degree of Aβ plaque deposition in the parietal cortex, hippocampus, and piriform cortex regions was analyzed using thioflavin S, which stains Aβ plaques.

## wild type GLP-1: wild type glucagon-like peptide-1, cleaved and inactivated by DPP-4 in vivo; SEQ ID NO: 1
[1]
  biological half-life: 1-2 minutes

B1: GI210B1CN: fusion protein dimer comprising GLP-1 and an Fc domain of IgG4; SEQ ID NO: 22 (protein)
chain: HGEGTFTSDVSSYLEEQAAKEFIAWLVKGGGGGGGSGGGGSGGGGSGGAESKYGPPCPPCPAPEAAGGPSVFLFPPKPKDQLMISRTPEVTCVVVDVSQEDPEVQFNWYVDGVEVHNAKTKPREEQFNSTYRVVSVLTVLHQDWLNGKEYKCKVSNKGLPSSIEKTISKAKGQPREPQVYTLPPSQEEMTKNQVSLTCLVKGFYPSDIAVEWESNGQPENNYKTTPPVLDSDGSFFLYSRLTVDKSRWQEGNVFSCSVLHEALHNHYTQKSLSLSLG
modifications: dimer; GLP-1-IgG4 Fc
Tg-APP/PS1 mice [2]
  expression level of MAP-2 in the CA1 region of the hippocampus: higher than that of the control group (Tg+Veh)
Tg-APP/PS1 mice [3]
  amount of plaque deposited in the brain (number of plaques per unit area and sum of plaque areas): tended to be reduced
